According to US20070243191A1, “ANTI-HYPERPROLIFERATIVE THERAPIES TARGETING HDGF” (THE BOARD OF REGENTS OF THE UNIVERSITY OF TEXAS SYSTEM, priority 2005, published 2007):

B1: H3: anti-HDGF IgG1 monoclonal antibody; heavy chain SEQ ID NO:36, light chain SEQ ID NO:38 (antibody, V domains shown)
VH: QITLKQSGPGIVQPSQPVRLTCTFSGFSLSTSGIGVAWIRQPSGKGLEWLATIWWDDDNRYNPSLKSRLAVSKDTSNNQAFLNIITVETADTAIYYCAQIYDYAVGFAYWGQGTLVTVSA
VL: DIQMTQTTSSLSASLGDRVTISCRASQDISNYLNWYQQKPDGTVKLLIYYTSRLHSGVPSRFSGSGSGTDYSLTISNLEPDDIATYYCQQYGKLWTFGGGTKLEIK
modifications: H3 heavy chain aa; H3 light chain aa
B2: anti-HDGF monoclonal antibody C1 (antibody, V domains shown)
VH: EVQLVESGGRLVQPKGSLKLSCAASGFTFNTYAMYWIRQAPGKGLEWVARIRSKSYNYATYYADSVKDRFTISRDDSQSMLYLQMNNLKTADTAMYYCVSEGFWGQGTSVTVSS
VL: DVLMTQTPLSLPVSLGDQASISCRSSQSIVHSSGNTYLEWYLQKPGQSPKLLIYKVSNRFSGVPDRFSGSGSGTDFTLKISRVEAEDLGVYYCFQGSHVPWTFGGGTKLEIK
notes: also called HDGF C1-2f; C1 antibody
B3: C1: anti-HDGF IgG1 monoclonal antibody; heavy chain SEQ ID NO:32, light chain SEQ ID NO:34 (antibody, V domains shown)
VH: B2 VH
VL: B2 VL
modifications: C1 heavy chain aa; C1 light chain aa

Legend:
[1] = test system: tumor microvessels; test: CD31 staining of microvessels in treated A549 xenograft tumors; assay type: in vivo, mouse
Text: In order to directly study the antiangiogenic action of anti-HDGF antibodies, the xenograph tumors treated with the various agents and presented in the foregoing example (see FIG. 8) were studied following CD31 staining. CD31 antibody staining is generally regarded as a convenient means of visualizing microvessels in order to assess angiogenesis and anti-angiogenic action. Each of the tumors treated as described with respect to FIG. 8 were subjected to CD31 staining.

[2] = test system: A549 xenograft; test: A549 xenograft model, H3 in combination with gemcitabine and Avastin; assay type: in vivo, mouse; settings: single agents and combinations
Method: To determine potential synergistic effects of combining the antibodies with other cancer therapeutic agents, the H3 antibody was tested in combination with gemcitabine, a commonly used chemotherapeutic agent, and Avastin®, a FDA approved VEGF neutralizing monoclonal antibody, in the A549 xenograft model. At day 7 after tumor cell inoculation subcutaneously, the animals were randomized into one of the 8 groups: […] (6 mice), gemcitabine (5 mice), H3 (7 mice), Avastin® (5 mice), H3+gemcitabine (5 mice), 113+Avastin® (5 mice), Avastin®+gemcitabin (5 mice), and H3+ gemcitabine+Avastin® (7 mice). In this experiment, all the agents were given IP at day 7 and every 3 days thereafter for total 5 injections. H3 was given 250 μg per mouse/injection without boost at first injection; gemcitabine was given in a dose of 80 mg/kg/injection; and Avastin® was given 100 μg per mouse/injection.

[3] = test system: L3.6 pancreatic cancer cells; test: L3.6 pancreatic cancer xenograft model; assay type: in vivo; settings: mice with tumors bigger than 500 mg, one week after treatment
Method: Anti-HDGF antibodies were tested for a therapeutic effect in a xenograft model using metastatic L3.6 pancreatic cancer cells. After 10 days of tumor cell inoculation, mice were randomly selected into either M31 control antibody treatment, H3 antibody treatment, or C1 antibody treatment. The sizes of the tumors were between 100-200 mg at the time of treatment except three which grown bigger than 500 mg and were assigned to each group. […] This phenomenon is similar to human clinical observations where some established primary lung cancers develop liquidized central part of the tumors after treatment with agents having anti-angiogenic activity such as sorafenib (BAY 43-9006). This is a hallmark feature of anti-angiogenic agents as a class.

[4] = test system: "MiaPaca-2" line (M109); test: Putative MiaPaca-2 (believed M109 murine lung adenocarcinoma) xenograft model; assay type: in vivo, mouse; settings: putative MiaPaca-2 (murine M109) model, H3 compared with C1
Method: (§1) The two antibodies were tested using what was believed at the time to be the MiaPaca-2 pancreatic cancer xenograft model. […] This observation led to the use of H3 in the initial combination experiment described above. To determine the expression of HDGF in the cell line, a Western blot analysis was performed using C1 and H3 antibodies. […] To determine HDGF expression levels in pancreatic cancers, 7 additional pancreatic cancer cell lines were analyzed. All the 7 cell lines expressed high-level HDGF recognizable by H3 antibody but not the putative “MiaPaca-2” line.
(§2) An immunoprecipitation assay was then performed using H3 antibody to determine whether the antibody recognizes the native HDGF in the cells, which is important to explain why the antibody had inhibited the tumor growth in the xenograft model. […] Because the protein migrated faster than the HDGF from NSCLC cell lines, the HDGF cDNA from “MiaPaca-2” cells was sequenced. […] The origin of the cell line was traced and is now believed to be M109, a murine lung adenocarcinoma cell line from a mouse spontaneous lung cancer.

[5] = Antibody distribution after intra-peritoneal injection in tumor-bearing nude mice; assay type: in vivo; settings: for antibody localization in tumor tissue (anti-mouse IgG staining): tumor tissue sections of treated tumors
Method: To determine the distribution of the antibodies after intra-peritoneal injection in the animals, we injected fluoresce labeled M31 and H3 antibodies into nude mice and used a scanner to measure the antibody distribution 12 h after injection. […] To determine the antibody distribution in the tumor tissues and to compare the patterns of the distribution in the tumor tissues among the different antibodies, a specific anti-mouse IgG antibody was used to stain tumor tissue sections of tumors treated with different antibodies.

[6] = target: T1, native HDGF (Mus musculus, UniProt P51859); test: Immunoprecipitation of native HDGF from putative MiaPaca-2 cells; assay type: binding; settings: putative MiaPaca-2 cells (murine HDGF)
T1 construct: endogenous in cells; host or cells: putative MiaPaca-2 cells, believed to be M109 murine lung adenocarcinoma
Method: as §2

[7] = target: T2, HDGF (Homo sapiens, UniProt P51858); test: Immunoprecipitation of HDGF from H460 total cell lysates; assay type: binding; settings: H460 NSCLC total cell lysates
T2 construct: The antibody sufficiently pulled down over 90% of the cellular HDGF; endogenous in cells; host or cells: H460 NSCLC cells (total cell lysate)
Method: In most studies, HDGF was found localized in nuclear compartment. […] One possibility of the lacking cytoplasmic staining is the common IHC conditions. Alternatively, the protein may be rapidly released from cells making the detection of protein in cytoplasm difficult. Taking advantage of the newly developed monoclonal antibodies, two sets of experiments were performed to determine the subcellular localization of HDGF and the secretion/releasing status of the protein. In one set of experiment, H3 was used for immunoprecipitation (IP) employing total cell lysates from H460 NSCLC cells. The antibody sufficiently pulled down over 90% of the cellular HDGF. Some potential HDGF binding proteins might have also co-precipitated with HDGF. We then extracted cytoplasmic proteins and nuclear proteins separately and performed IP as described above followed by 2-DE protein separation. Although the relative HDGF protein amount was higher in the nuclear than in the cytoplasm with equal amount of protein loading, HDGF was clearly presented in cytoplasm with distinct modification or homologues patterns between the two subcellular compartments. It should be noted that the total amount of cytoplasmic proteins is much higher than the nuclear proteins. Therefore, the absolute amount of HDGF in cytoplasm may actually be similar or even higher to that in nuclear.

[8] = test system: A549 xenograft; test: A549 xenograft model, individual monoclonal antibodies; assay type: in vivo, mouse; settings: for average tumor weights: 500 μg boost then 250 μg every three days x4 i.p., day 22, PBS 784±458; for tumor growth inhibition vs PBS and M31 controls: A549 xenograft, individual antibodies
Text: To determine an anti-tumor effect of individual monoclonal antibodies, the CELLine™ system (BD Biosciences) was used to generate the amount of antibodies for each clone sufficient for our animal experiments. In our second experiment, we tested four individual monoclonal antibodies (H3, C1, C4, and L5-9) and used PBS and M31, an IgG1 antibody without known antigen, as controls. Cell inoculation was similar to the experiment described above, 7 days after subcutaneous injection of A549 cells, the animals with established tumors were randomized into one of the 6 groups. Besides PBS group, which was given 200 μl PBS every IP injection, all the other groups were given a 500 μg of individual antibody as boost dose followed by 250 μg/injection every three days for four times. Tumor sizes were measured every three days. All the animals were sacrificed at day 22 after tumor cell inoculation.

[9] = test system: H460 xenograft; test: H460 xenograft model; assay type: in vivo, mouse
[10] = target: T3, HDGF (Mus musculus, UniProt P51859, A118D); test: Western blot of HDGF in putative MiaPaca-2 cells; assay type: binding; settings: putative MiaPaca-2 line (murine HDGF)
T3 construct: endogenous in cells; host or cells: putative MiaPaca-2 cells, believed to be M109 murine lung adenocarcinoma
Method: as §1, §2

[11] = target: native HDGF (Homo sapiens, UniProt P51858); test: Binding to native HDGF (immunoprecipitation, clone selection)
Text: Thus, to develop a useful therapeutic that could affect tumor control, it was deemed important to develop high-affinity monoclonal antibodies that had the ability to bind native HDGF. An exemplary approach that was employed by the inventors involved, first, generating full-length recombinant HDGF in bacteria. This bacterially expressed recombinant HDGF was then used the immunize mice to generate mature B cells secreting antibodies specifically recognizing HDGF. After fusing the B cells with myeloma cells and several rounds of screening/selection steps, single clones secreting high-affinity IgGs capable to bind native HDGF were identified. […] Antibodies from these clones were selected and tested using IHC. Similar staining patterns were obtained in a panel of tumor samples among these antibodies and between these antibodies and the previously mentioned polyclonal antibodies, indicating these antibodies recognize HDGF. All of the four monoclonal antibodies are IgG1 and have been adapted to serum-free conditions for scale-up production.

[12] = target: T4, human hepatoma-derived growth factor (HDGF) (human, UniProt P51858 1-240); test: sandwich ELISA, 40 ng C1 coated per well as capture antibody
T4 construct: In most assays the endogenous protein of human cancer cell lines or tissues (lysates for immunoprecipitation, denatured on Western blots); also called native HDGF; recombinant HDGF
T4 sequence (P51858 whole entry): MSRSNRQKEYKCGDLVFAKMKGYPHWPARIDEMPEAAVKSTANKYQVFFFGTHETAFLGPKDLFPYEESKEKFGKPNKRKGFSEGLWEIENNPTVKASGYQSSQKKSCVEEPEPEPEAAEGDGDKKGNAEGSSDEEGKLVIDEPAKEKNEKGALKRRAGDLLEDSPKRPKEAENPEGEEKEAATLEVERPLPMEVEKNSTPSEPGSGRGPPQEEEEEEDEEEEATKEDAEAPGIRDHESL

T3 sequence (P51859 whole entry A118D): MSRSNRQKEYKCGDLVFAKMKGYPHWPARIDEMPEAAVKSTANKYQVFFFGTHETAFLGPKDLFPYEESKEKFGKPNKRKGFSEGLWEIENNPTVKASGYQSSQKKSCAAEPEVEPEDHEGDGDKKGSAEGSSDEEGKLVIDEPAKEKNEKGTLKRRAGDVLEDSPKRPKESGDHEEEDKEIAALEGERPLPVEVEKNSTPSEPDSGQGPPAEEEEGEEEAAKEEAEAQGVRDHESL
native HDGF (Homo sapiens, UniProt P51858), sequence (P51858 whole entry): as the sequence (P51858 whole entry) above
T2 sequence (P51858 whole entry): as above
T1 sequence (P51859 whole entry): as the sequence (P51859 whole entry A118D) above, with D118A counted along it

| Molecule | size of the microvessels in the tumors [1] | tumor growth inhibition [2] | numbers of microvessels in the tumors [1] | liquidized central part of tumor (hollow effect) [3] | antibody localization in tumor tissue (anti-mouse IgG staining) [5] | average tumor weights [8] | tumor growth inhibition vs PBS and M31 controls [8] | tumor growth inhibition [9] | detection of HDGF on Western blots [10] | binding to native HDGF [11] | also measured |
| --- | --- | --- | --- | --- | --- | --- | --- | --- | --- | --- | --- |
| Nc1ccn([C@@H]2O[C@H](CO)[C@@H](O)C2(F)F)c(=O)n1 [gemcitabine, reference compound] | further increase the size | only modest tumor growth inhibition |  |  |  |  |  |  |  |  |  |
| Avastin®: FDA approved VEGF neutralizing monoclonal antibody [reference compound] |  | best inhibition | substantially reduced numbers of microvessels |  |  |  |  |  |  |  |  |
| B1 | stronger role in reducing the size | best inhibition followed by H3 | substantially reduced numbers of microvessels | developed liquidized central part | entered into the cytoplasmic compartment of some tumor cells | 266±22 | most significant tumor growth inhibition | effective in inhibiting tumor growth | did not detect HDGF | ability to immunoprecipitate HDGF | tumor growth inhibition [4]: better tumor growth inhibition; antibody distribution in the animals including tumors ([5]; fluorescence-labeled antibody, 12 h after i.p. injection, nude mice): evenly distributed; binding to native HDGF of the tumor cells [6]: strongly bound; cellular HDGF pulled down by immunoprecipitation [7]: over 90% |
| B2 |  |  |  |  |  |  |  |  |  |  | binding result [12]: binds |
| B3 |  |  |  | developed liquidized central part | entered into both cytoplasm and nuclear | 224±85 | most significant tumor growth inhibition | effective in inhibiting tumor growth | did not detect HDGF | ability to immunoprecipitate HDGF |  |
